# Measured values reported in the DeepSol protein solubility set.
# Assay: soluble on expression in E. coli; label from the status in PepcDB or PDB records
row,Sequence,soluble on expression in E. coli
1,IRTHLNLPSDKKVIMYAPTWRDDEFVSKGKYLFELKIDLDNLYKELGDDYVILLRMHYLISNALDLSGYENFAIDVSNYNDVSELFLISDCLITDYSSVMFDYGILKRPQFFFAYDIDKYDKGLRGFYMNYMEDLPGPIYTEPYGLAKELKNLDKVQQQYQEKIDAFYDRFCSVDNGKASQYIGDLIHK,not soluble
2,ISTEEAAPDGPPMDVTLQPVTSQSIQVTWKAPKKELQNGVIRGYQIGYRENSPGSNGQYSIVEMKATGDSEVYTLDNLKKFAQYGVVVQAFNRAGTGPSSSEINATTLE,soluble
3,KGKDDAGEKPDEPADPCGLALQVQAQGTLEQLEAELTGAGQGLALEARAGLLPQAPFPLRTASLKLTREDKSSLAATLDWQPQPGQPGRDRVVATFEAERLDLQRLAGEAIPPAMLSARGGLDAEVDDLSSLHRATLTLDVTKGSSWNRHPLAGKVAASVSALGDPPGAFATAAPAQPHALPGGLWVDQLDVDLQLGPNRVRAQGKLDERAGALKLDAQAPRLDAFWPGIPGAASVKAALDGALARHRGRIEAAYTPADARARVLGRARAQAQLEFSGGWGAGPAAEGAAAGWRGSVSRLTADSAGFALALERPVTLAYVPEALAPQWQWQVGATTLALTFPDKQRVALAHAASRGGAGRWETAGRADALVITAAMVRQILVALDPEAVARAERDSGSPVNAPVPAAQRRISLDASWDLKFAGALAGKVRVARRDGDLRIPGDPPIPLGLRTLVLEANATPTGGQASRLDARLDMATARMGAINGTASATLGGLALDPRQPIRVALDADVTDLAWLGLFVGDTLEVGGMLKANVRAQGSLDGKWNASGTVNGDKLRVVRIDDGVRLIDGMLRARLQDDRVILDSLRFPASLRVMPAEWRTREWVSTNPDAKGGYLEATGQWELSAARGQVRLQLHRFPALQRSDRYGMVSGVVTLDAALPRISINGDITADAGWVSLEILQGVPTLDDDVKVVRAGQKNAQGDGPPLQIDMNLKVDMGPRFYITGMGLDAGLLGSIQIRLQEGRLTGYGALRTRGGGIEAYGQKLRLRRGTLTFQGRLDNPLLDIEALRTGEQVEAGVRVAGTAQRPRIDLVSYPDVSDVEKLSWLVLGRGPDASGGDTALLLSVGTALLGGGQPFYKQFGLDDVSVRSGAIGSSGSLLPDRTVAAGVNRDSDADLATQFLVASKRFANGITLSVEQALAGSETVGRA,not soluble
4,KGMIRPRGLNQQRYVKEVLSNDINFGIGPAGTGKTYLAVACAVDALEREQIRRILLVRPAVEAGEKLGFLPGDLAQKIDPYLRPLYDALYEMLGFEYVAKLIEKQVIEVAPLAYMRGRTLNNSFIILDESQNTTVEQMKMFLTRIGFGSTAVITGDITQVDLPKGTRSGLTHVIDVLKDVPGISFTHFKPKDVVRHPLVQRIVEAYERFDDQLSDGPSGNNG,soluble
5,KGMTPPKTVNFKMKGVADAAFSHEFHLGMYKCNECHTKLFAYKAGAKRFTMADMDKGKSCGACHNGKDAFSSASDCGKCHPG,soluble
6,KILLKTSENGLDLEKPYYQAVIRRWQNKITDADTRRETVSAVSPKIILNDAPKWAVMLETEWQDGEWFEGRLAQEWLDKGVATNREQVAALETELKQKPAQLLIGVRAQTVPDRGVLRQIVRLSEAAQGGAVVQLLAEQGLSDDLSEKLEHWRNALAECGAAWLEPDRAAQEGRLKDQ,not soluble
7,KMLDEKFYSKLLGEELDLIICLPPDFSPLYKYPLFIVQDGKDYFQFGKLARHSEELAVNEQIQKAIFIGIPYKTVMDRREKYHPDGEQNEAYIRFLAFELVPYLEERFPSFQMPTSRFL,not soluble
8,KMNRKPTTKIISICLKKATGHVAEALGVEKATEVIVIERLRSLDNMPAIFEIDYFRKEDQFMLDLELTDTSLLDILRQYRGVIASYFDNIIEIALADEKLAEALAISEEEALVKINQTVVDNDNQILYFNEQYILSESYKVAIRSYNK,soluble
9,KMPISAGVTVERKLNDYLGIETGLLYSNLRSEGQHLHYLGIPLKANITLMDTKKIDLYATVGGVADKCIAGAPDNSFKEEPIQLAVTAGIGITYKINDRLAVFAEPG,not soluble
10,KSVVIGKDALIGWHGGANQSDEMWDQSVPSQYEKQFYRYLTRLRIKEAEFYNKVGVDPNITVYGHTRTNTCQRSTLANGWYYTESDMRHMGIKNLTVQGELLNTLNYNNSEINSCLMPQIFN,not soluble
11,KTRPYMEEVLYVWKLKQLHNKIFRKLKSIKAAASNDDVKALTTLKFYYTTQRQVFELDNNTLTMSSVNKELEAIDQIEVDKSLHLDIASFEEGWIDTY,soluble
12,KTSDANETEDHLESLICKVGEKSACSLESNLEGLAGVLEADLPNYKSKILRLLCTVARLLPEKLTIYTTLVGLLNARNYNFGGEFVEAMIRQLKESLKANNYNEAVYLVRFLSDLVNCHVIAAPSMVAMFENFVSVTQEEDVPQVRRDWYVYAFLSSLPWVGKELYEKKDAEMDRIFANTESYLKRRQKTHVPMLQVWTADKPHPQEEYLDCLWAQIQKLKKDRWQERHILRPYLAFDSILCEALQHNLPPFTPPPHTEDSVYPMPRVIFRMFDYTDDPEGPVMPGSHSVERFVIEENLHCIIKSHWKERKTCAAQLVSYPGKNKIPLNYHIVEVIFAELFQLPAPPHIDVMYTTLLIELCKLQPGSLPQVLAQATEMLYMRLDTMNTTCVDRFINWFSHHLSNFQFRWSWEDWSDCLSQDPESPKPKFVREVLEKCMRLSYHQRILDIVPPTFSALCPSNPTCIYKYGDESSNSLPGHSVALCLAVAFKSKATNDEIFSILKDVPNPNQDDDDDEGFSFNPLKIEVFVQTLLHLAAKSFSHSFSALAKFHEVFKTLAESDEGKLHVLRVMFEVWRNHPQMIAVLVDKMIRTQIVDCAAVANWIFSSELSRDFTRLFVWEILHSTIRKMNKHVGAQSEQKNLFLVIFQRFIMILTEHLVRCETDGTSVLTPWYKNCIERLQQIFLQHHQIIQQYMVTLENLLFTAELDPHILAVFQQFCALQA,soluble
13,KTVINVVLQEDTQILDEVVVTALGLKREQKALGYAVTEVKGDDLKAANTISPVAALQGKVAGVEIRQSDGGMFGATKIQIRGASTLKGNNQPIYVIDGVILDNSTSGNTTMDWDAGNNNANDYGNELKNLNPDDFETVSVLKGAAATALYGSRGLNGAVVITTKSGKG,not soluble
14,KTVTPEEKKLVAEKHVDELVQKALVALEEMRKLDQEQVDYIVAKASVAALDAHGELALHAFEETGRGVFEDKATKNLFACEHVVNNMRHTKTVGVIEEDDVTGLTLIAEPVGVVCGITPTTNPTSTAIFKSLISLKTRNPIVFAFHPSAQESSAHAARIVRDAAIAAGAPENCVQWITQPSMEATSALMNHEGVATILATGGNAMVKAAYSCGKPALGVGAGNVPAYVEKSANIRQAAHDIVMSKSFDNGMVCASE,not soluble
15,KTYGPLKNLPHLEKEQLSQSLWRIADELGPIFRFDFPGVSSVFVSGHNLVAEVCDEKRFDKNLGKGLQKVREFGGDGLFTSWTHEPNWQKAHRILLPSFSQKAMKGYHSMMLDIATQLIQKWSRLNPNEEIDVADDMTRLTLDTIGLCGFNYRFNSFYRDSQHPFITSMLRALKEAMNQSKRLGLQDKMMVKTKLQFQKDIEVMNSLVDRMIAERKANPDENIKDLLSLMLYAKDPVTGETLDDENIRYQIITFLIAGHETTSGLLSFAIYCLLTHPEKLKKAQEEADRVLTDDTPEYKQIQQLKYIRMVLNETLRLYPTAPAFSLYAKEDTVLGGEYPISKGQPVTVLIPKLHRDQNAWGPDAEDFRPERFEDPSSIPHHAYKPFGNGQRACIGMQFALQEATMVLGLVLKHFELINHTGYELKIKEALTIKPDDFKITVKPRKTAAINVQRKEQADIKAETKPKETKPKHGTPLLVLFGSNLGTAEGIAGELAAQGRQMGFTAETAPLDDYIGKLPEEGAVVIVTASYNGAPPDNAAGFVEWLKELEEGQLKGVSYAVFGCGNRSWASTYQRIPRLIDDMMKAKGASRLTAIGEGDAADDFESHRESWENRFWKETMDAFDINEIAQKEDRPSLSITFLSEATETPVAKAYGAFEGIVLENRELQTAASTRSTRHIELEIPAGKTYKEGDHIGILPKNSRELVQRVLSRFGLQSNHVIKVSGSAHMAHLPMDRPIKVVDLLSSYVELQEPASRLQLRELASYTVCPPHQKELEQLVSDDGIYKEQVLAKRLTMLDFLEDYPACEMPFERFLALLPSLKPRYYSISSSPKVHANIVSMTVGVVKASAWSGRGEYRGVASNYLAELNTGDAAACFIRTPQSGFQMPNDPETPMIMVGPGTGIAPFRGFIQARSVLKKEGSTLGEALLYFGCRRPDHDDLYREELDQAEQDGLVTIRRCYSRVENEPKGYVQHLLKQDTQKLMTLIEKGAHIYVCGDGSQMAPDVERTLRLAYEAEKAASQEESAVWLQKLQDQRRYVKDVW,not soluble
